Assay results taken from US20170066829A1 (published 2017).

Target: HER2 molecule (antigen of the affinity ELISA of FIG. 4) (UniProt P04626 23-652, limits assumed)
Assay: ELISA with dilutions of HRP-conjugated Hersintuzumab, sigmoidal OD 450 nm curves

B1: Hersintuzumab (antibody, V domains shown)
VH: EVKLVESGGGLVKPGGSLRLSCATSGFSFSSYYMYWVRQAPGKRLEWVAYISSGSEIYYSDSVKGRFTISRDSAKNTLYLQMNSLRAEDTAVYYCARLGDDGMDVWGQGTTVTVSS
VL: DIVMTQSPSSLSASVGDRVTITCRASQNVRTAVAWFQQKPGKAPKALIYLASNRHTGVPDRFTGSGSGTEFTLTISNLQPEDFATYFCLQHNSYPLTFGGGTKVEIK
notes: also called humanized anti-HER2 antibody; humanized monoclonal anti-HER2 antibody
Ka: 6e+08 M⁻¹
